According to patent US20240352438A1, “MEANS AND METHODS FOR DETOXIFYING OCHRATOXIN A” (DSM Austria GmbH, priority 2021, published 2024):

Assays:
[1] = OTA detoxification activity assay (specific activity, fluorescence reduction ex/em 390/450 nm); assay type: biochemical; settings: SEQ ID NO: 1 = 100%
Summary of the method: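 Recombinant enzyme preparation with 200 ng/mL OTA in 100 mM sodium phosphate, at pH 6.0 and pH 7.5, 37° C. Degradation followed as the fall in fluorescence at ex/em 390/450 nm. Specific activity taken from the initial linear slope; one unit degrades 1 μmol OTA per min at a starting OTA of […].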

[2] = Enzymatic activity comparison: activity remaining after 65° C. for 10 min at pH 6.0, relative to SEQ ID NO: 1; assay type: physicochemical
Protocol: To compare the temperature behavior and thermostability of selected enzymes to one another, enzyme was incubated at 65° C. for 10 min at pH 6.0. The enzymatic activity remaining after incubation was compared to the remaining activity of the enzyme of SEQ ID NO: 1 after incubation, the latter being set to 100%, see Table 16.

B1: 151 (protein)
chain: MTTRTRILTAFLSLLAANACAADAAPAAPHTVVLRAARMFDGASGKLVDHPQLTIVGNKIVRIAQGDKAEVPAGAEVVDLGDATLLPGFIDAHVHLSGQSSDNWYGDFFDNMMRFPAEQALYGAYYARITLEAGFTSVRDVGSTDWVALGLRNAIDAGKVPGPRMLVSNYPVGSTGGHADQDPIPPHKLPLAGPLQGVCNGPEECRAAVRYQIKYGANVIKFMPSGGVLSLSDPVDAPELSQDEMNAVIGESHAWGRKVAAHAHGDKAAKMAVAAGVDSIEHGSFIEDDTLRAMKAKNVYLVPTISAAAHVEEKIGTFPPVIAEKGRAAAAHLRQTFRHAVQIGVPIALGTDAGVGAHGSNAREFRYMVENGLTPAQALLAGTANAARLLGTFDRVGTLEAGKLADVVAVPGNPIADITVTERPLFVMKDGVVVRRDAVR
modifications: exemplary polypeptide
For B1, which “Specific OTA detoxification activities in % compared to the enzyme of SEQ ID NO: 1, pH 6.0” value [1] is on record?
The value was 75%.

And the “Specific OTA detoxification activities in % compared to the enzyme of SEQ ID NO: 1, pH 7.5” value [1]?
Its value is 86%.

What about the “Enzymatic activity remaining after incubation, compared to SEQ ID NO: 1 (set to 100%)” value [2] of the same molecule?
Its value is 30%.

B2: 154 (protein)
chain: MTTRTRILTAFLSLLAANACAADAAPAAPHTVVLRAARMFDGASGKLVDHPQLTIVGNKIVRIAQGDKAEVPAGAEVVDLGDATLLPGFIDAHVHLSGQSSDNWYGDFFDNMMRFPAEQALYGAYYARITLEAGFTSVRDVGSTDWVALGLRNAIDAGKVPGPRMLVSNYPVGSTGGHADQDPIPPHKLPLAGPLQGVCNGPEECRAAVRYQIKYGANVIKFMPSGGVLSLSDPVDAPELSQDEMNAVIGESHAWGRKVAAHAHGDKAAKMAVAAGVDSIEHGSFIEDDTLRAMKAKNVYLVPTISAIAHVEEKIGTFPPVIAEKGRAAAAHLRQTFRHAVQIGVPIALGTDAAVGAHGSNAREFRYMVENGLTPAQALLAGTANAARLLGTFDRVGTLEAGKLADVVAVPGNPIADITVTERPLFVMKDGVVVRRDAVR
modifications: exemplary polypeptide
Which results are given for B2?
Specific OTA detoxification activities in % compared to the enzyme of SEQ ID NO: 1, pH 6.0 [1]: 38%; Specific OTA detoxification activities in % compared to the enzyme of SEQ ID NO: 1, pH 7.5 [1]: 38%; Enzymatic activity remaining after incubation, compared to SEQ ID NO: 1 (set to 100%) [2]: 32%

B3: 158 (protein)
chain: MTTRTRILTAFLSLLAANACAADAAPAAPHTVVLRAARMFDGASGKLVDHPQLTIVGNKIVRIAQGDKAEVPAGAEVVDLGDATLLPGFIDAHVHLSGQSSDNWYGDFFDNMMRFPAEQALYGAYYARITLEAGFTSVRDVGSTDWVALGLRNAIDAGKVPGPRMLVSNYAVGSTGGHADQDPVPPHKLPLAGPLQGVCNGPEECRAAVRYQIKYGANVIKFMPSGGVLSLSDPVDAPELSQDEMNAVIGESHAWGRKVAAHAHGDKAAKMAVAAGVDSIEHGSFIEDDTLRAMKAKNVYLVPTISAIAHVEEKIGTFPPVIAEKGRAAAAHLRQTFRHAVQIGVPIALGTDAAVGAHGSNAREFRYMVENGLTPAQALLAGTANAARLLGTFDRVGTLEAGKLADVVAVPGNPIADITVTERPLFVMKDGVVVRRDAVR
modifications: exemplary polypeptide
Which “Specific OTA detoxification activities in % compared to the enzyme of SEQ ID NO: 1, pH 6.0” value [1] does the source give for B3 here?
The value was 157%.

What about the “Specific OTA detoxification activities in % compared to the enzyme of SEQ ID NO: 1, pH 7.5” value [1] of the same molecule?
Its value is 92%.

What about the “Enzymatic activity remaining after incubation, compared to SEQ ID NO: 1 (set to 100%)” value [2] of the same molecule?
Its value is 9%.

B4: 157 (protein)
chain: MTTRTRILTAFLSLLAANACAADAAPAAPHTVVLRAARMFDGASGKLVDHPQLTIVGNKIVRIAQGDKAEVPAGAEVVDLGDATLLPGFIDAHVHLSGQSSDNWYGDFFDNMMRFPAEQALYGAYYARITLEAGFTSVRDVGSTDWVALGLRNAIDAGKVPGPRMLVSNYAVGSTGGHADQDPVPPHKLPLAGPLQGVCNGPEECRAAVRYQIKYGANVIKFMPSGGVLSLSDPVDAPELSQDEMNAVIGESHAWGRKVAAHAHGDKAAKMAVAAGVDSIEHGSFIEDDTLRAMKAKNVYLVPTISAIAHVEEKIGTYPPVIAEKGRAAAAHLRQTFRHAVQIGVPIALGTDAGVGAHGSNAREFRYMVENGLTPAQALLAGTANAARLLGTFDRVGTLEAGKLADVVAVPGNPIADITVTERPLFVMKDGVVVRRDAVR
modifications: exemplary polypeptide
What does the source list for B4?
Specific OTA detoxification activities in % compared to the enzyme of SEQ ID NO: 1, pH 6.0 [1]: 78%; Specific OTA detoxification activities in % compared to the enzyme of SEQ ID NO: 1, pH 7.5 [1]: 63%; Enzymatic activity remaining after incubation, compared to SEQ ID NO: 1 (set to 100%) [2]: 73%

B5: 155 (protein)
chain: MTTRTRILTAFLSLLAANACAADAAPAAPHTVVLRAARMFDGASGKLVDHPQLTIVGNKIVRIAQGDKAEVPAGAEVVDLGDATLLPGFIDAHVHLSGQSSDNWYGDFFDNMMRFPAEQALYGAYYARITLEAGFTSVRDVGSTDWVALGLRNAIDAGKVPGPRMLVSNYAVGSTGGHADQDPVPPHKLPLAGPLQGVCNGPEECRAAVRYQIKYGANVIKFMPSGGVLSLSDPVDAPELSQDEMNAVIGESHAWGRKVAAHAHGDKAAKMAVAAGVDSIEHGSFIEDDTLRAMKAKNVYLVPTISAAAHVEEKIGTFPPVIAEKGRAAAAHLRQTFRHAVQIGVPIALGTDAGVGAHGSNAREFRYMVENGLTPAQALLAGTANAARLLGTFDRVGTLEAGKLADVVAVPGNPIADITVTERPLFVMKDGVVVRRDAVR
modifications: exemplary polypeptide
With B5 as the molecule, how does the “Specific OTA detoxification activities in % compared to the enzyme of SEQ ID NO: 1, pH 6.0” value [1] read?
The value was 116%.

What about the “Specific OTA detoxification activities in % compared to the enzyme of SEQ ID NO: 1, pH 7.5” value [1] of the same molecule?
The value was 124%.

What about the “Enzymatic activity remaining after incubation, compared to SEQ ID NO: 1 (set to 100%)” value [2] of the same molecule?
The value was 35%.

B6: 159 (protein)
chain: MTTRTRILTAFLSLLAANACAADAAPAAPHTVVLRAARMFDGASGKLVDHPQLTIVGNKIVRIAQGDKAEVPAGAEVVDLGDATLLPGFIDAHVHLSGQSSDNWYGDFFDNMMRFPAEQALYGAYYARITLEAGFTSVRDVGSTDWVALGLRNAIDAGKVPGPRMLVSNYAVGSTGGHADQDPIPPHKLPLAGPLQGVCNGPEECRAAVRYQIKYGANVIKFMPSGGVLSLSDPVDAPELSQDEMNAVIGESHAWGRKVAAHAHGDKAAKMAVAAGVDSIEHGSFIEDDTLRAMKAKNVYLVPTISAAAHVEEKIGTYPPVIAEKGRAAAAHLRQTFRHAVQIGVPIALGTDAGVGAHGSNAREFRYMVENGLTPAQALLAGTANAARLLGTFDRVGTLEAGKLADVVAVPGNPIADITVTERPLFVMKDGVVVRRDAVR
modifications: exemplary polypeptide
With B6 as the molecule, how does the “Specific OTA detoxification activities in % compared to the enzyme of SEQ ID NO: 1, pH 6.0” value [1] read?
The value was 84%.

What about the “Specific OTA detoxification activities in % compared to the enzyme of SEQ ID NO: 1, pH 7.5” value [1] of the same molecule?
The value was 93%.

And the “Enzymatic activity remaining after incubation, compared to SEQ ID NO: 1 (set to 100%)” value [2]?
Its value is 30%.

B7: 156 (protein)
chain: MTTRTRILTAFLSLLAANACAADAAPAAPHTVVLRAARMFDGASGKLVDHPQLTIVGNKIVRIAQGDKAEVPAGAEVVDLGDATLLPGFIDAHVHLSGQSSDNWYGDFFDNMMRFPAEQALYGAYYARITLEAGFTSVRDVGSTDWVALGLRNAIDAGKVPGPRMLVSNYAVGSTGGHADQDPVPPHKLPLAGPLQGVCNGPEECRAAVRYQIKYGANVIKFMPSGGVLSLSDPVDAPELSQDEMNAVIGESHAWGRKVAAHAHGDKAAKMAVAAGVDSIEHGSFIEDDTLRAMKAKNVYLVPTISAVAHVEEKIGTFPPVIAEKGRAAAAHLRQTFRHAVQIGVPIALGTDAGVGAHGSNAREFRYMVENGLTPAQALLAGTANAARLLGTFDRVGTLEAGKLADVVAVPGNPIADITVTERPLFVMKDGVVVRRDAVR
modifications: exemplary polypeptide
Which “Specific OTA detoxification activities in % compared to the enzyme of SEQ ID NO: 1, pH 6.0” value [1] does the source give for B7 here?
The value was 144%.

And the “Specific OTA detoxification activities in % compared to the enzyme of SEQ ID NO: 1, pH 7.5” value [1]?
Its value is 109%.

What about the “Enzymatic activity remaining after incubation, compared to SEQ ID NO: 1 (set to 100%)” value [2] of the same molecule?
The value was 34%.

B8: 153 (protein)
chain: MTTRTRILTAFLSLLAANACAADAAPAAPHTVVLRAARMFDGASGKLVDHPQLTIVGNKIVRIAQGDKAEVPAGAEVVDLGDATLLPGFIDAHVHLSGQSSDNWYGDFFDNMMRFPAEQALYGAYYARITLEAGFTSVRDVGSTDWVALGLRNAIDAGKVPGPRMLVSNYPVGSTGGHADQDPIPPHKLPLAGPLQGVCNGPEECRAAVRYQIKYGANVIKFMPSGGVLSLSDPVDAPELSQDEMNAVIGESHAWGRKVAAHAHGDKAAKMAVAAGVDSIEHGSFIEDDTLRAMKAKNVYLVPTISAIAHVEEKIGTYPPVIAEKGRAAAAHLRQTFRHAVQIGVPIALGTDAGVGAHGSNAREFRYMVENGLTPAQALLAGTANAARLLGTFDRVGTLEAGKLADVVAVPGNPIADITVTERPLFVMKDGVVVRRDAVR
modifications: exemplary polypeptide
With B8 as the molecule, how does the “Specific OTA detoxification activities in % compared to the enzyme of SEQ ID NO: 1, pH 6.0” value [1] read?
Its value is 72%.

And the “Specific OTA detoxification activities in % compared to the enzyme of SEQ ID NO: 1, pH 7.5” value [1]?
Its value is 77%.

And the “Enzymatic activity remaining after incubation, compared to SEQ ID NO: 1 (set to 100%)” value [2]?
Its value is 34%.

B9: 152 (protein)
chain: MTTRTRILTAFLSLLAANACAADAAPAAPHTVVLRAARMFDGASGKLVDHPQLTIVGNKIVRIAQGDKAEVPAGAEVVDLGDATLLPGFIDAHVHLSGQSSDNWYGDFFDNMMRFPAEQALYGAYYARITLEAGFTSVRDVGSTDWVALGLRNAIDAGKVPGPRMLVSNYPVGSTGGHADQDPIPPHKLPLAGPLQGVCNGPEECRAAVRYQIKYGANVIKFMPSGGVLSLSDPVDAPELSQDEMNAVIGESHAWGRKVAAHAHGDKAAKMAVAAGVDSIEHGSFIEDDTLRAMKAKNVYLVPTISAVAHVEEKIGTFPPVIAEKGRAAAAHLRQTFRHAVQIGVPIALGTDAGVGAHGSNAREFRYMVENGLTPAQALLAGTANAARLLGTFDRVGTLEAGKLADVVAVPGNPIADITVTERPLFVMKDGVVVRRDAVR
modifications: exemplary polypeptide
Which “Specific OTA detoxification activities in % compared to the enzyme of SEQ ID NO: 1, pH 6.0” value [1] does the source give for B9 here?
The value was 65%.

And the “Specific OTA detoxification activities in % compared to the enzyme of SEQ ID NO: 1, pH 7.5” value [1]?
Its value is 74%.

What about the “Enzymatic activity remaining after incubation, compared to SEQ ID NO: 1 (set to 100%)” value [2] of the same molecule?
Its value is 38%.
